Consider three molecules from US8076452 (dated 2011).

Positions count from the first letter of the chain named.

B1: FAB protein (FABP from bovine hearts) with N-terminal 15-amino-acid peptide motif 1 and C-terminal His-tag of 6 histidines (other)
chain: DLYDIDRNWVGHPQGFVGTWKLVDSKNFDDYMKSLGVGFATRQVGNMTKPTTIIEVNGDTVIIKTQSTFKNTEISFKLGVEFDETTADDRKVKSIVTLDGGKLVHVQKWNGQETSLVREMVDGKLILTLTHGTAVCTRTYEKQAHHHHHH
B2: FAB protein (FABP from bovine hearts) with N-terminal 15-amino-acid peptide motif 3 and C-terminal His-tag of 6 histidines (other)
chain: DVEAWLDERVPLVETFVGTWKLVDSKNFDDYMKSLGVGFATRQVGNMTKPTTIIEVNGDTVIIKTQSTFKNTEISFKLGVEFDETTADDRKVKSIVTLDGGKLVHVQKWNGQETSLVREMVDGKLILTLTHGTAVCTRTYEKQAHHHHHH
B3: FAB protein (FABP from bovine hearts) with N-terminal 15-amino-acid peptide motif 4 and C-terminal His-tag of 6 histidines (other)
chain: B2 chain with L6I, D7A, E8D, R9P, V10A, P11V, L12H, V13F, E14T

The target of this experiment is T1, streptavidin (UniProt P22629 37-163).
T1 construct: also called peroxidase-labeled streptavidin; streptavidin-Sepharose
T1 sequence (P22629 37-163 limits assumed): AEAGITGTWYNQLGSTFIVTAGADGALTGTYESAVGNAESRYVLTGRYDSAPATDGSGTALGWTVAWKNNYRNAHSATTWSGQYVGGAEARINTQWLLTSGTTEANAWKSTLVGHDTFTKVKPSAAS
Nature of the experiment: SPR (BiacoreX, NTA chip), fusion protein immobilised, streptavidin injected. Here is the method: The measurements of the dissociation constant were performed with a BiacoreX system and the sensor chip NTA of the company Biacore. The proteins generated during the expression described in Example 1 were investigated, i.e. FAB proteins, which had at the N terminus a peptide consisting of 15 amino acids as fusion partners and at the C terminus 6 histidines, which were needed for the immobilization on the sensor chip. The binding affinity of the proteins generated during the expression to streptavidin described in Example 1 was measured in the Biacore device according to manufacturer's instructions. The protein to be investigated is on the sensor chip, and a streptavidin solution having a defined concentration is sprayed in. The interaction (binding) between the two molecules is measured by the device and quantified as so-called resonance units (RU). For the measurement, the buffers specified by the manufacturer were used.
For B1, the “RU at 500 nM streptavidin” value amounted to 62 RU and the “RU at 2 µM streptavidin” value turned out to be 233 RU.
As to B2, the “RU at 500 nM streptavidin” value is 786 RU and the “RU at 2 µM streptavidin” value is 946 RU.
As for B3, the “RU at 500 nM streptavidin” value stood at 478 RU and the “RU at 2 µM streptavidin” value was 644 RU.
